Test results published in article PMC3600519, “Acute toxicity of vipoxin and its components: is the acidic component an “inhibitor” of PLA2 toxicity?” (Interdisciplinary Toxicology, 2012).

Target: T1, vipoxin basic and toxic phospholipase A2 subunit (Vipera ammodytes meridionalis, UniProt P14420 1-122)
T1 sequence: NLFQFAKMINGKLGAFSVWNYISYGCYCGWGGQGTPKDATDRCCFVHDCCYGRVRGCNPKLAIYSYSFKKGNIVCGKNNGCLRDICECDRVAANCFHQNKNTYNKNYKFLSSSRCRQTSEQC
Experiment: cell-based or functional assay

B1: vipoxin's acidic component (natural protein)
chain: NLFQFGDMILQKTGKEAVHSYAIYGCYCGWGGQGRAQDATDRCCFAQDCCYGRVNDCNPKTATYTYSFENGDIVCGDNDLCLRAVCECDRAAAICLGENVNTYDKNYEYYSISHCTEESEQC
B1 was tested, and the “residual PLA2 enzyme activity (NOBA substrate) of reconstituted complex PLA2 + VAC (1:1 molar ratio), pre-incubation 1 min to 24 h (100, 120, 115, 114, 114, 113, 108, 78 %)” value was 120%.
